Reference: patent US20190092832A1 (published 2019)

Target: T1, interferon-alpha/beta receptor alpha chain (IFNAR1) (UniProt P17181 28-436, limits assumed)
T1 sequence (looked up): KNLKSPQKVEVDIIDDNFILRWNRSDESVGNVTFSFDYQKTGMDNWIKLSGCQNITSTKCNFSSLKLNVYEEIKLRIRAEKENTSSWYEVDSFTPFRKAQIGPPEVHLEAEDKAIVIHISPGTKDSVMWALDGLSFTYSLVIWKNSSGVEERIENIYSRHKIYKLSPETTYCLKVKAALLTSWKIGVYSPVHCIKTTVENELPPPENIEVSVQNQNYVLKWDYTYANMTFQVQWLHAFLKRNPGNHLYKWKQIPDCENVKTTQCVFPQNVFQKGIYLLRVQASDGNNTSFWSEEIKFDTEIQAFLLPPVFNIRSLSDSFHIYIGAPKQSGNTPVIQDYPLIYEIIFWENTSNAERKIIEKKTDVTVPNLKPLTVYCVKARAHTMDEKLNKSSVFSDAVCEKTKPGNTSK
Test: intrinsic fluorescence quenching of IFNAR1 titrated with peptide, double-log plot, 298 K
Experimental: […] Protein intrinsic fluorescence experiments were carried out at constant IFNAR1 concentration titrated with different concentrations of IFNβ analog peptide to reach a maximum molar ratio of the IFNβ analog peptide-IFNAR1, and the complex maximum molar ratio of the IFNβ analog peptide-IFNAR1 was 10.
In these experiments, 1.0 ml solution with a fixed concentration of the […] was precisely added into the quartz cell with a 1 cm path length and was manually titrated by successive additions of the IFNβ analog peptide at 5 min time intervals. The fluorescence emission spectra were then measured, and the maximum fluorescence intensity at a wavelength of about 340 nm was used to calculate the binding constant parameters.
Fluorescence quenching data from the interaction of the IFNβ analog peptide and IFNAR1 were analyzed to obtain various binding parameters. The binding constant (Kₐ) and the number of binding (n) were calculated according to the Eq. 1, where F₀ is the fluorescence emission intensities of IFNAR1 in the absence of the IFNβ analog peptide, F is the fluorescence emission intensities of IFNAR1 in the presence of the IFNβ analog peptide, [P] is the IFNβ analog peptide concentration, Kₐ is the binding constant, and n is the apparent molar ratio of [IFNβ analog peptide]/[IFNAR1] complex.

MLQNGRDVRKRGFSDTGLRKLGRVNLL (also called MSPEP27) [IFNβ analog peptide with SEQ ID No. 2]
Ka: 3.67e+07 M⁻¹
